Test results as given in article PMC7577971.

Biological target: CR3022/S1 complex (one monomer of the spike ectodomain with one bound CR3022 Fab) (SARS-CoV-2 | human) (UniProt P0DTC2)
Assay: cryo-EM structure

Question: For “CR3022/S1 complex (one monomer of the spike ectodomain with one bound CR3022 Fab) (from UniProt P0DTC2 14-1208)”, which stoichiometry N is on record?
Answer: 2
